# Experimental data as given in the DeepSol protein solubility set.
# Experiment: soluble on expression in E. coli; label from the status in PepcDB or PDB records
row,Sequence,soluble on expression in E. coli
1,MQKLILSALFVALVAADCNMRCPDGYMSFKRTPTPKNSMTGMAILSDTLISPNQAKKVCEKDGSILTSFENFDERTKLSTVLRDFLTAKKLDRGSMIVDGHRLKNCETTDKTVLATVECRNSSSGFTTDEKHTDNTFMWKSWSATEPGQTIFEKSIESCLQLSISQFPARSELINDVFCNYVKHPENEGASDLWNYGAVCGRFPEWI,not soluble
2,MQLEDYTAATNIAKKDFMPGTTKIDRALTGQVAGLQVKRSSGMPGEGSYYNLRGIRTLTGDNAPLIVINGVPHMPDKTPSALIDGFTRDIFQFYHLQDIQNITILKGAEAAMYGSMGSNGVILIETDGTASN,not soluble
3,MQLLITGGTGLIGRHLIQRLQLLSHHITVLTRDPERARGVLGNQVEYWSTLSNITSLNDFDGVINLAGEPIADKRWTPQQKQRLAQSRWSITEQLATLIKASSEPPTVFISGSAVGYYGDQGEALVTEGESPVDEFTHHLCTRWEALAQSAESDKTRVCLLRTGIVLSAQGGALAKMLPIFRLGLGGPMGSGKQYMPWIHIDDMVNGIIYLLDQPILRGPFNMVAPYPVHNEQFSAMLAHVLDRPGFLRAPAFAMKLLMGEASTLVLGGQRAIPQRLEAAGFGFRFFELEEALQDVTKKPGLEHHHHHH,soluble
4,MQLRKMQTIKKEPAPLDPTSSSDKMLLLNSALAEVAEDLASGEDLLLNEGSMGKNKSSACRRKREFIPDEKKDAMYWEKRRKNNEAAKRSREKRRLNDLVLENKLIALGEENATLKAELLSLKLKFGLISSTAYAQEIQKLSNSTAVYFQDYQTSKAAVSSFVDEHEPAMVAGSCISVIKHSPQSSLSDVSEVSSVEHTQESPAQGGCRSPENKFPVIKQEPVELESFAREAREERGTYSTSIYQSYMGSSFSTYSHSPPLLQVHGSTSNSPRTSEADEGVVGKSSDGEDEQQVPKGPIHSPVELQRVHATVVKVPEVNPSALPHKLRIKAKAMQVKVEALDSEFEGMQKLSSPADAIAKRHFDLEKHGTSGMAHSSLPPFSVQVTNIQDWSLKSEHWHHKELSSKTQSSFKTGVVEVKDGGYKVSEAENLYLKQGIANLSAEVVSLKRFIATQPISASDSR,not soluble
5,MQLRKMQTVKKEQASLDASSNVDKMMVLNSALTEVSEDSTTGEELLLSEGSVGKNKSSACRRKREFIPDEKKDAMYWEKRRKNNEAAKRSREKRRLNDLVLENKLIALGEENATLKAELLSLKLKFGLISSTAYAQEIQKLSNSTAVYFQDYQTSKSNVSSFVDEHEPSMVSSSCISVIKHSPQSSLSDVSEVSSVEHTQESSVQGSCRSPENKFQIIKQEPMELESYTREPRDDRGSYTASIYQNYMGNSFSGYSHSPPLLQVNRSSSNSPRTSETDDGVVGKSSDGEDEQQVPKGPIHSPVELKHVHATVVKVPEVNSSALPHKLRIKAKAMQIKVEAFDNEFEATQKLSSPIDMTSKRHFELEKHSAPSMVHSSLTPFSVQVTNIQDWSLKSEHWHQKELSGKTQNSFKTGVVEMKDSGYKVSDPENLYLKQGIANLSAEVVSLKRLIATQPISASDSG,soluble
6,MQLRSVIAADHPALFALWSRTPGIRLRAEDAYPFFLAYLQRNPGLSLLVETEGEVIACLMAGHDGRRGYLQHLVVDPGYRGLGLARRMLDEVLARLAREGIGKSHVFVLDAAEEAQAFWRAQSDWERRKDIQVFSTREGHA,soluble
7,MQLTIKNKDLNTLYRVLDKIKITNMRANRGRAKLLAKVVDKINEYAKDETDLIDMYAAKDKDDKFVIDEHKNIKLADPAKLDELNDLLNELADEEIVIKGGEYSKRFIDFLNFLEECEDEFTSSEIILIDNILEQFEESKKGE,not soluble
8,MQMPRRFNTYCPHCNEHQEHEVEKVRSGRQTGMKWIDRQRERNSGIGNDGKFSKVPGGDKPTKKTDLKYRCGECGKAHLREGWRAGRLEFQE,soluble
9,MQNLRTDVLIIGGGEAGLVAGCRALTMGQKVILVEKNGYLGGATILNGSNVVGTGSDVAAQIFDNNHDTPEMLAQDVARESLETNYPALTDLMVHNIGPAIDFISKFADLHYQKAQTQTPEHSINRQIELPSASSYEFIQKVSKAFAAAGGQIMLDTRVEKLMLDNDKKLRGVIAAQKDQTVNIKARSVVLAAGGHGANQKMRGTESEGIDYYGPMTSTGDAYQFNGDLDLQTHDLGWYKLYPHGVEVEPGVAKLTTYASKQATDMGAIYVNSKGDRIVNESNVYTTFRNAILKQADKVAYLVMDERTWKKVYDLLILHDFTPEEIKSFFENKGKRPVFVKGSLESAAEQAGIVVDELVQTVKNYQGYVQDGHDHDFGRDPKYLHQFEGETFYIIEQRDRFATTLGGYSVDADNLQLVTTKNAPVANYFGAGEIIGGANGHDSMPSMMNTWGISSGYVAGAAASENAQRQATAGAAALEHHHHHH,soluble
10,MQNVVGIDFQKSGKMEYYSPKGFDLDVGDWVVVESKRGLEMGRVKYAPLDVADQDVTLPLKEIVRLATEDDLLQYEKNEYDADEAMALCKETIQQHELEMRLVNCEYTLDKSKVIFNFTSDERVDFRKLVKVLAQKLKTRIELRQIGVRDEAKLLGGIGPCGRSLCCSTFLGDFEPVSIKMAKDQNLSLNPTKISGACGRLMCCLKYENDYYEEARAQLPDVGDAIETPEGNGKVIGLNILDISMQVKVEGLEQPLEYKMEELETLNLEHHHHHH,not soluble
11,MQPTRRSYSNPFKAQVIQECSQPGASIASVALSHNLNANLVHKWIRLHAQKSPTLPPAFIPLAMPPAGANPHPASPNICVEIQHTRGTVKVSWPTENAAACATFLRDLLRLEHHHHHH,not soluble
12,MQQASHPTVILGGGFAGLFTALHLSQQNYSYPIILIEQRDRFSFKPLLYELLSGELHSQQVYPRYQELLAGSKVKFVQDTVQSIDIHQQRVDTVSGQAFHYSNLILALGSKTTYFATPGAAEYAMPFTSGEQAIALRQHLRHKLYQAIQTSDSERRRLLLTVAIIGAGPSGIELACTLADLLPIWYDELGGDGSEIHVVLVNRSREILKGDVNSHLRCTVERAMKNRLIPVDFLFDAAVTKITPDGVECRRHGQIQMLQAGTIAWTAGTAPHPLLMELPVSQNRGRLLVKPTLQLSNFPEIFAAGDCATDSDHPQPPTAQVAYQQGIAIAQNLQRISQNKPTIPVQLEHHHHHH,not soluble
13,MQQVFKKPVSLKDVQTHFCPGCHHGTFHRLVAEAMDEFGVQKKTIGVASVGCSVFLYGYFDIDVVEAPHGRAPAVATGVKRARPDAFVFTYQGDGDLAAIGTSEIIHAANRGEDITVIFVNNTTYGMTGGQMAPTTLVGQRTSTSPYGRKNEKDGSPIRMAELLAQLEGVAFSARVAVNNPKNLMDAKRQIKKAFRYQAEGKGFSFIEALSSCPTNWGMDALAANERVGTEMCA,not soluble
14,MQRHTLPLRPLLGTLLLGLLLAGCDASRDDATALGPVPIASGDECHVCGMLIEEMPGPKGESVLPGAVRKFCSTAELFGWWLQPENRQGQARLYVHDMSQADWRHPDDARLIDATRAYYVVGIQRPGGMGATLASFADEEAATRLAAEEGGRVLRFDEIDQAVLQGVGGDHPHRHPAH,not soluble
15,MQRIETRKVKVGSVYVGGDSRVTVQSMTNTDTRDSKKTIEQIKKLEIAGCDIVRCAVPDFDAASSLSEITKNVKLPVVADIHFDYRLALEAIKNGVSALRINPGNIGSKERVELVAKSAKEKNIPIRIGVNSGSLEKDILNKYKRVCSEALVESALNHVKILEDVNFNDIVISIKSSNVQMMIDSYRLISKEVNYPLHLGVTEAGTIWRGTIKSSIGIGTLLSEGIGDTIRVSLTGDPVEEVKVGREILKTFGYLKSGVEFISCPTCGRTSIDLIKIANEVEKRLEKTNKSIKVAVMGCVVNGPGEAREADIGIAGGKGEGLIFKKGEIIKKVKEENLVDELMREIDNMLEHHHHHH,not soluble
16,MQSSTEKELLTNASLTVSSDFASNLEGALPSQPITQANPRAEQTLMTTYMSSTTNQADPKTFEEQFVNLLGTFTPSQAVCNVSNVDCGTYVRGPETWSSCKLGTQAIAPNASYIQIRVQDKHSTMDRMNWKGPIEDTSPLMKSLTANFL,not soluble
17,MQTDSLSPSPNPVSPVPLNNPTSAPRYGTVIPNRIFVGGIDFKTNESDLRKFFSQYGSVKEVKIVNDRAGVSKGYGFVTFETQEDAQKILQEAEKLNYKDKKLNIGPAIRKQQVGIPRSSIMPAAGTMYLTTSTGYPYTYHNGVAYFHTPEVTSVPPPWPSRSVCSSPVMVAQPIYQQPAYHYQATTQYLPGQWQWSVPQPSASSAPFLYLQPSEVIYQPVEIAQDGGCVPPPLSLMETSVPEPYSDHGVQATYHQVYAPSAITMPAPVMQPEPIKTVWSIHY,soluble
18,MQTSPEREAVIIRSGNSKILNTRSLMSDSRPEVLTEEDVLRLFPVLGGERRLTRRLLKALKITDINAVHARHINLRGAEFAHAALTDPAINVCYRLHGAEHLEEMRKGGAFTTVSNHPFGSLDGIMLIDIIGSVRPDYSVLVNGFLSMISCLRDSFIPVAPLKGMAGGLDSKHNVSGVKEVLNRLQNGQPVGFFPAGGISVYKGNRNRVMDSEWQASCAKMILVSQVPVYPIFFSGRNSWYFHFLGWLSWAIRTPRIPAELFNKRGHIFDVYIGDPIPPETIARFEKNPRELALFLYDRTYRLAPGHKKNK,not soluble
19,MQVLNTKSETKQENETMQPPYIQERLKSLNDIETQLCSMLQEASQVTFIFGELKRGNESVKPQFENHVKQFYERLDKSTTQLRKEIQLLDENVGTRLLPINVNKKALGQDTEKMEEQLDLLSAILDPSKSK,soluble
20,MQVMASPPCTTEELSPPPGGSLVEYSGGSLRVPDNPVVAFIRGDGVGPEVVESALKVVDAAVKKVYGGSRRIVWWELLAGHLAREKCGELLPKATLEGIRLARVALKGPLETPVGTGYRSLNVAIRQALDLYANIRPVRYYGQPAPHKYADRVDMVIFRENTEDVYAGIEWPHDSPEAARIRRFLAEEFGISIREDAGIGVKPISRFATRRLMERALEWALRNGNTVVTIMHKGNIMKYTEGAFMRWAYEVALEKFREHVVTEQEVQEKYGGVRPEGKILVNDRIADNMLQQIITRPWDYQVIVAPNLNGDYISDAASALVGGIGMAAGMNMGDGIAVAEPVHGTAPKYAGKDLINPSAEILSASLLIGEFMGWREVKSIVEYAIRKAVQSKKVTQDLARHMPGVQPLRTSEYTETLIAYIDEADLNEVLAGKRG,soluble
21,MQVRIERAERIESELEEHVGDQTFVEESRFLEEDEQREGEILDQIIFVDGKRRSFVRITTDEGITGIFAELCVGAVIWDREGGTKTLFSPDKPPVKERVLGFSQSFQEEGYEEVGGILFKVVKEGKDAMQSIDLYMRSLEIEEVRKHMDKNILIVKDGPAARELPFEENVGPIGLVKNIGVTELSKEDFKKLRFLKKGKRSKMFVSSRETPLKKVGAYVKLIDGEGIRGLVRLETYVKDDNQIPYIRKVFDDLAKTLPHLTADLPIPRLPENILPIQFLEENLSYYLTDKNYMNTRLFAYIGR,not soluble
22,MQVSPHDTSQPKQHAQSLSSASQSEAGKYTDGRETSARWLDDDSIAQRDLWNFIGDELKMGIPDNARIREQKTRYLKNKSYLHDVTLRAEPYMYWIVEQIKQRKMPMELVLLPIVESAFDPSATSSANAAGLWQIIPGTGRNYGLKQNQWYDGRRDVIASTTAALDMMQRLNTMFDGDWLLTVAAYNSGEGRVMQAMKANKAKGKPTNFWALALPRETSIYVPKMLALSDILKNSKKYGVNLPQPNESRALAKVELGQQIELTQAAEMAGLSLNKLKSYNSGYKRNVTAPNGPHYIMVPKAHVEQLKDSLADGDIAAIQPTRLEQTPASQQYKVRSGDTLSAIATRLNVSTKDLQSWNNLRSVGALKVGQTLQVAKASGTNGSITYQVRKGDSLASIAKRHGVNIADVMRWNTVINKNANIQPGDRLTLYVSSNIKPDSLEHHHHHH,soluble
